For the series, the target named is NIN (520-878) (Lotus japonicus, UniProt Q9S7B1 520-878). The series is described as follows: EMSA; 25 mM Tris-HCl pH 8.0, 80 mM NaCl, 35 mM KCl, 5 mM MgCl2, 10% glycerol, 1 mM DTT, 0.1% Triton; 25 nM probe, 2 ul protein (ERN1 0.75 mg/ml, NIN 1.0 mg/ml stock); 30 min at 30 C (ERN1) or 37 C (NIN); gel in 0.5x TBE. To be noted: protein: recombinant; tags: His-tag (pET30); label: 6-FAM at 5' of strand 1; blunt.
Sequence of NIN (520-878) (Q9S7B1 entry or part of it): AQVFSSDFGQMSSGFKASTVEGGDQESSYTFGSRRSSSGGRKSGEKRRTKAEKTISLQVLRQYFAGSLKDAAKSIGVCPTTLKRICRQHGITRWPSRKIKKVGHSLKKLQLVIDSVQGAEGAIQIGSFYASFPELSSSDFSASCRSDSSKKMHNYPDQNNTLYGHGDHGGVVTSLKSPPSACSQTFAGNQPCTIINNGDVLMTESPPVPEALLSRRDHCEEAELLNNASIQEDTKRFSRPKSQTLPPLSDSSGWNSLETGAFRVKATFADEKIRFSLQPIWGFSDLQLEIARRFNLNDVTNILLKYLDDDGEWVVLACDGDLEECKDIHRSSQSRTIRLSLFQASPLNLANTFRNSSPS

B1: Nin1 probe (Epr3 promoter wt) (dsDNA)
DNA 1: ATACCCTGCCCTTACAGACAAGTATAAGAGGCACAAAA
DNA 2: TTTTGTGCCTCTTATACTTGTCTGTAAGGGCAGGGTAT
B1: the binding result is listed as “binds”.
